Assay results as given in IntAct's records for PubMed 24240280.

B1: Synaptic vesicle glycoprotein 2C (Homo sapiens), Q496J9 (parent)
chain: MEDSYKDRTSLMKGAKDIAREVKKQTVKKVNQAVDRAQDEYTQRSYSRFQDEEDDDDYYPAGETYNGEANDDEGSSEATEGHDEDDEIYEGEYQGIPSMNQAKDSIVSVGQPKGDEYKDRRELESERRADEEELAQQYELIIQECGHGRFQWALFFVLGMALMADGVEVFVVGFVLPSAETDLCIPNSGSGWLGSIVYLGMMVGAFFWGGLADKVGRKQSLLICMSVNGFFAFLSSFVQGYGFFLFCRLLSGFGIGGAIPTVFSYFAEVLAREKRGEHLSWLCMFWMIGGIYASAMAWAIIPHYGWSFSMGSAYQFHSWRVFVIVCALPCVSSVVALTFMPESPRFLLEVGKHDEAWMILKLIHDTNMRARGQPEKVFTVNKIKTPKQIDELIEIESDTGTWYRRCFVRIRTELYGIWLTFMRCFNYPVRDNTIKLTIVWFTLSFGYYGLSVWFPDVIKPLQSDEYALLTRNVERDKYANFTINFTMENQIHTGMEYDNGRFIGVKFKSVTFKDSVFKSCTFEDVTSVNTYFKNCTFIDTVFDNTDFEPYKFIDSEFKNCSFFHNKTGCQITFDDDYSAYWIYFVNFLGTLAVLPGNIVSALLMDRIGRLTMLGGSMVLSGISCFFLWFGTSESMMIGMLCLYNGLTISAWNSLDVVTVELYPTDRRATGFGFLNALCKAAAVLGNLIFGSLVSITKSIPILLASTVLVCGGLVGLCLPDTRTQVLM

Variants of: B1
Settings: with bxa1_clobo botA

Variant | effect of a mutation on the interaction
F563A | disrupting interaction strength
